assay: yeast display, Sf9 membrane polyspecificity reagent, FACS + sequencing; frameworks hold sequencing errors
Summary of the method: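 Galactose induction of a Saccharomyces cerevisiae BJ5465 synthetic nanobody display library ran 36–48 hours. The cells were then stained for 1 hour at 4 °C with 10% biotinylated, detergent-solubilized Sf9 membrane reagent, pulled down on streptavidin microbeads and FACS-sorted into low and high (top ~1%) gates on expression and reagent-binding fluorescence. Labels for polyreactivity follow the gate of origin.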

| Sequence | polyreactivity (PSR sort gate) |
| --- | --- |
| QVHLVESGGGLVQAGGSLRLSCAASGITLRVYVMGWYRQAPGKERELVAAITSRGDRTYYADSVKGRFTISRDNAKNTVYLQMNSLKPEDTAVYYCAASRWRDAGHSYDYWGQGTQVTVSS | high polyreactivity |
| QVHLVESGGGLVQAGGSLRLSCAASGITVGSYAMGWYRQAPGKERELVAAITSGGGTNYADSVKGRFTISRDNAKNTVYLEMKSLKPEDTAVYYCAARYYYLGTRYGYWGQGTQVTVSS | low polyreactivity |
| QVHLVESGGGLVQAGGSLRLSCAASGLIFTTNAMGWYRQAPGKERDFVAAISPSGGSTYYADSVKGRFTISRDNSKNTVYLQMNSLKPEDTAVYYCAARYSTVWHKYYYWGQGTQVTVSS | high polyreactivity |
| QVHLVESGGGLVQAGGSLRLSCAASGLIFYRYAMGWYRQAPGKERELVATISSGGSTNYADSVKGRFTISRDNAKNTVYLQMNSLKPEDTAVYYCAASRWLYYYLFEYWGQGTQGTVSS | high polyreactivity |
| QVHLVESGGGLVQAGGSLRLSCAASGLIIYRYAMGWYRQAPGKERELVAAITTNGARTYYADSVKGRFTISRDNAKNTVYLQMTSLIPEDTAVYYCAAYGAGKFWAEHNYWGLGTQVTVSS | high polyreactivity |
| QVHLVESGGGLVQAGGSLRLSCAASGLTFGRNAMGWYRQAPGKERELVAVISRSGGSTYYADSVKGRFTISRDNAQNTVYLQMNSLKPEDTAVYYCAAGAYSYRKYRSYDYWGQGTQVNVSS | high polyreactivity |
| QVHLVESGGGLVQAGGSLRLSCAASGLTFYPNAMGWYRQAPGKERELVAAITYSTGSTYADSVKGRFTITRDNAKNTVFLQMNSLKPEDSAVYDCAAYWSRVRYGMNYWGQGTQVTVSS | high polyreactivity |
| QVHLVESGGGLVQAGGSLRLSCAASGLTFYYYVMGWYRQAPGKERELVAAISYSGGRTYYADSVKGRFTISRDNAKNTVYLQMNSLKPEDTAVYYCAAQSRYGGKFYYWGQGTQVTVSS | high polyreactivity |
| QVHLVESGGGLVQAGGSLRLSCAASGRIFADYAMGWYRQAPWKERELVADIRQSGGRTYYADSVKGRFTISRDYAKNTVDLQMNSLKPEDTAVYYCATDYGSWGDYSGKYDYWGQGTQVTVSS | low polyreactivity |
| QVHLVESGGGLVQAGGSLRLSCAASGRIFAGYAMGWYRQAPGKERELVATITRGGSTNYADSVKRPFTISRDNAKNTVYLQMNSLKPEDTAVYYCADVTWYEEYDSWGQGTQVTVSS | low polyreactivity |
| QVHLVESGGGLVQAGGSLRLSCAASGRIFAWYAMGWYRQAPGKERELVAAITWGGGRTYYADSVKGRFTISRDNAKNTVYLQMNSLKPEDSAFYYCNRDFDDEMWGQGTQVTVSS | low polyreactivity |
| QVHLVESGGGLVQAGGSLRLSCAASGRIFGDYAMGWYRQATGKERELVAAINSSGTSTNYADSVKGRFTFSRDNAKNTVYLQMNSLKPEDTAVYYCNAEGTYRPEYDSWGQGTQVTVSS | low polyreactivity |
| QVHLVESGGGLVQAGGSLRLSCAASGRIFGPYAMGWYRQAPGKERELVASISGGGSTNYADSVKGRFTISRDNAKNTVYLQMNSLKPEDTAVYYCAADVYYQYWGWWPYDYWGQGTQVTVSS | low polyreactivity |
| QVHLVESGGGLVQAGGSLRLSCAASGRIFHYNTMGWYRQAPGKERELVAAITSSGGSTYYADSVKGRFTISRDNAKNTVYLQMNSLKPEDTAVYYCNAVFYRYGFKVDYWGQGTQETVSS | high polyreactivity |
| QVHLVESGGGLVQAGGSLRLSCAASGRIFIYYAMGWYRQAPGKERELVAAISWCGGRTYYADSVKGRFTISRDNAKNTVYLQMNSLKPEDTAVYYCAAGVYTGQHEYDYWGQGTQVTVSS | low polyreactivity |
| QVHLVESGGGLVQAGGSLRLSCAASGRIFPKNGMGWYRQAPGTERDLVAAITSGTSTYYADSVKGRFTISRDNAKNTVYLQMNRLKPEDTAVYYCAARPTDGSGWPYRWTSDYWGQGTQVTVSS | low polyreactivity |

| Sequence | polyreactivity (PSR sort gate) |
| --- | --- |
| QVHLVESGGGLVQAGGSLRLSCAASGRIFRKYAIGWYRQAPGKERELVAAISFSGTSTYYADSVKGRFTISRDNAKNTVYLQMNSLKPEDTAVYYCAAVYRQGTGYVDYDSWGQGTQVTVSS | low polyreactivity |
| QVHLVESGGGLVQAGGSLRLSCAASGRIFVFNAMGWYRQAPGKERELVAAINYRGGTYYADSVKGRFTISRDNAKNTVYLQMNSLKPEDTAVYYCNALRQKFQYHDNDYWGQGTQVTVSS | high polyreactivity |
| QVHLVESGGGLVQAGGSLRLSCAASGRIFVKYAMGCYRQAPGKERELVAAIRSGGSTYYADSVKGRFTISRDNAKNTVYLQMNSLKPEDTAVYYCAADRNKHHYYTEPYDYWGQGTQVTVSS | low polyreactivity |
| QVHLVESGGGLVQAGGSLRLSCAASGRIFVRYAMGWYRQAPGKERELVATISGGRTNYADSVKWRFTISRDNAKNSVYLQMNSLKPEDTAVYYCAVGSHSRSSNSYYYWGQGSQVTVSS | low polyreactivity |
| QVHLVESGGGLVQAGGSLRLSCAASGRISKLYAMGWYRQAHGKERDLVAAISSGGSTYYADSVKGRFTISRDNAKNTVYLQMNSLKPEDTAVYYCAVTQVMQYGIPYSYTRDYWGQGTQVTVSS | low polyreactivity |
| QVHLVESGGGLVQAGGSLRLSCAASGRISWGYAMGWDRQAPGKERELVAVINFNGGRTYYADSVKGRFTISRDNAKNTVYLQMNSLKPEDTAVYYCAADSGYEYDYWGQGTQVTVSS | low polyreactivity |
| QVHLVESGGGLVQAGGSLRLSCAASGRIYPYPMGWYRQAPGKERELVAAITSRGGTTYYADSVKGRFTISRDNAKNTDYVQMNSLKPEDTAVYYCNKRPWWWGGDDYWGQGTQVTVSS | low polyreactivity |
| QVHLVESGGGLVQAGGSLRLSCAASGRNFYTNVMGWSRQAPGKERELVAAISSGGGTTYYADSVKGRFTISRDNAKNTVYLQMNSLKPEDTAVYYCAADALSDEYDYWGQGTEVTVSS | low polyreactivity |
| QVHLVESGGGLVQAGGSLRLSCAASGRSFRRNARGWYRQAPGKERELVATISSGGTTKYADSVKGRFTISRDNAKYTVYLQMNNLKPEDTAVYYCNADLNRRTYGPDSYYWGQGNQVTVSS | high polyreactivity |
| QVHLVESGGGLVQAGGSLRLSCAASGRTFASNPMGWYRQAPGKERELVAAISARGGSTYYADSVKGRFTISRDNAKNTVYLQMNSLKPEDTAVYYCAAYLGYPYGRDYWGQGTQVTVSS | high polyreactivity |
| QVHLVESGGGLVQAGGSLRLSCAASGRTFFWYVMGWYRQAPGKERELVATISYGGITYYADSVKGRFTISRDNAKNTVYLQMNSLKPEDTAVYYCAARRSLYYSTVKFDGYYYWGQGTQVTVSS | high polyreactivity |
| QVHLVESGGGLVQAGGSLRLSCAASGRTFGWNVMGWYRQAPGTERELVAAISGSGGSTYYADSVKGRFTISRDNAKNTVYLQMNSLKPEDTAVYYCAALYGPGREYDYWGQGTQVTVSS | low polyreactivity |
| QVHLVESGGGLVQAGGSLRLSCAASGRTFIYYAMGWYRQAPGKERELVASITTGGRTYYADSVKGRFTISRDNAKNTVYLQMNSLKPEDSAVYYCAAEPHFFWYYHYVYGEHDYWGQGTQVTVSS | high polyreactivity |
| QVHLVESGGGLVQAGGSLRLSCAASGRTFKYYAMGWYRQAPGKERELVAAISSRGGSTYYADSVKGRFTISRDNAKNTVYLQMNSLKPEDTAVYYCAKGTYLSTSTVANDYWGQGTQGTVSS | high polyreactivity |
| QVHLVESGGGLVQAGGSLRLSCAASGRTFPYNAMGGYRQAPGKERELVAAISSGGSTTYADSVKGRFTISRDNAKNTVYLQMNSQKPEDTAVYYCATKYQRRPYRYYYWGQGTQVTVSS | low polyreactivity |
| QVHLVESGGGLVQAGGSLRLSCAASGRTFSGYAMGWYRQAPGKERELVAAITSSGSSTYYADSVKGRFTISRDNAKNTVYLQMNSLKPEDTAVYYCAATPQAHSERYYYQRKYDYWGQGTQVTVSS | low polyreactivity |
